According to publication PMC5344783 (Molecular microbiology, 2017):

T1: EzrA-L-FLAG^3 (Streptococcus pneumoniae (strain D39 …, UniProt Q8DQE5 1-575))
T1 sequence: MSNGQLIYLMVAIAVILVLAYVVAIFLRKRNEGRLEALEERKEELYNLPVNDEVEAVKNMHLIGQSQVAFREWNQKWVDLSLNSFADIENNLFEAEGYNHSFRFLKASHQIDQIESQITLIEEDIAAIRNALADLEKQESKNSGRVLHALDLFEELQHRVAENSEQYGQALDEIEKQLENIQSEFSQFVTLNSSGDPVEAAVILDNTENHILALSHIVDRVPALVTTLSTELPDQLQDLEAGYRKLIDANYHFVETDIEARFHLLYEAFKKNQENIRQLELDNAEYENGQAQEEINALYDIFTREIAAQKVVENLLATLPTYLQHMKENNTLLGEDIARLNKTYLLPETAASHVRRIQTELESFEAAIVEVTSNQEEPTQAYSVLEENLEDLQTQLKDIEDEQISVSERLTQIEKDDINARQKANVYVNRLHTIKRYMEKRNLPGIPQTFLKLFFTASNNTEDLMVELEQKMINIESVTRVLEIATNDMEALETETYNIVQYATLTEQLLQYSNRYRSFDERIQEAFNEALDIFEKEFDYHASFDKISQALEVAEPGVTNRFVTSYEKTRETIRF

T2: GpsB-L-FLAG^3 (Streptococcus pneumoniae (strain D39 …, UniProt Q8DR57 1-109))
T2 sequence: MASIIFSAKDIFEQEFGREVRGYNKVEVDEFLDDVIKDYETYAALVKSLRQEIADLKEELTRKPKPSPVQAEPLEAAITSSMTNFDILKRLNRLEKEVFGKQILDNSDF

T3: StkP-FLAG^2 (Streptococcus pneumoniae (strain D39 …, UniProt Q8DNS0 1-659))
T3 sequence: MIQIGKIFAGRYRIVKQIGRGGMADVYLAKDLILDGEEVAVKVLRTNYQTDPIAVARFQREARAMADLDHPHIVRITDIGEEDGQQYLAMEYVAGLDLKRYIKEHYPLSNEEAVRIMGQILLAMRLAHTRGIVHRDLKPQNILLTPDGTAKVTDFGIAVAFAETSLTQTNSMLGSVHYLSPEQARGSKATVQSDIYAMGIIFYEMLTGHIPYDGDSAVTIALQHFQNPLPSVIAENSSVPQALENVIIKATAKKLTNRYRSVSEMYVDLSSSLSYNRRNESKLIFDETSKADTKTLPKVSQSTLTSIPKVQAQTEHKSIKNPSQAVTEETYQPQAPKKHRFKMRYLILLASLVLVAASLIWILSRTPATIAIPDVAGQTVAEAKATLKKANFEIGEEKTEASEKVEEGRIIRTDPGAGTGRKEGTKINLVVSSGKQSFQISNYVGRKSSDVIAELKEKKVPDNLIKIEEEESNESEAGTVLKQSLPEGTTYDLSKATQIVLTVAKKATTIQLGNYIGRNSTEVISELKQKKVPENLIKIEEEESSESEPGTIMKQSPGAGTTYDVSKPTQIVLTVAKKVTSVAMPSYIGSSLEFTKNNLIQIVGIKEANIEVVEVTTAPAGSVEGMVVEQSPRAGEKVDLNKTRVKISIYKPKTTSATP

B1: FtsZ-Myc (natural protein)
chain: MTFSFDTAAAQGAVIKVIGVGGGGGNAINRMVDEGVTGVEFIAANTDVQALSSTKAETVIQLGPKLTRGLGAGGQPEVGRKAAEESEETLTEAISGADMVFITAGMGGGSGTGAAPVIARIAKDLGALTVGVVTRPFGFEGSKRGQFAVEGINQLREHVDTLLIISNNNLLEIVDKKTPLLEALSEADNVLRQGVQGITDLITNPGLINLDFADVKTVMANKGNALMGIGIGSGEERVVEAARKAIYSPLLETTIDGAEDVIVNVTGGLDLTLIEAEEASQIVNQAAGQGVNIWLGTSIDESMRDEIRVTVVATGVRQDRVEKVVAPQARSATNYRETVKPAHSHGFDRHFDMAETVELPKQNPRRLEPTQASAFGDWDLRRESIVRTTDSVVSPVERFEAPISQDEDELDTPPFFKNR
B2: EzrA-HA (natural protein)
chain: T1 sequence
B3: MreC (natural protein)
chain: MNRFKKSKYVIIVFVTVLLVSALLATTYSSTIVTKLGDGISLVDRVVQKPFQWFDSVKSDLAHLTRTYNENESLKKQLYQLEVKSNEVESLKTENEQLRQLLDMKSKLQATKTLAADVIMRSPVSWKQELTLDAGRSKGASENMLAIANGGLIGSVSKVEENSTIVNLLTNTENADKISVKIQHGSTTIYGIIIGYDKENDVLKISQLNSNSDISAGDKVTTGGLGNFNVADIPVGEVVATTHSTDYLTREVTVKLSADTHNVDVIELVGNS
B4: aPBP2a-HA^4 (enzyme)
chain: MKLDKLFEKFLSLFKKETSELEDSDSTILRRSRSDRKKLAQVGPIRKFWRRYHLTKIILILGLSAGLLVGIYLFAVAKSTNVNDLQNALKTRTLIFDREEKEAGALSGQKGTYVELTDISKNLQNAVIATEDRSFYKNDGINYGRFFLAIVTAGRSGGGSTITQQLAKNAYLSQDQTVERKAKEFFLALELSKKYSKEQILTMYLNNAYFGNGVWGVEDASKKYFGVSASEVSLDQAATLAGMLKGPELYNPLNSVEDSTNRRDTVLQNMVAAGYIDKNQETEAAEVDMTSQLHDKYEGKISDYRYPSYFDAVVNEAVSKYNLTEEEIVNNGYRIYTELDQNYQANMQIVYENTSLFPRAEDGTFAQSGSVALEPKTGGVRGVVGQVADNDKTGFRNFNYATQSKRSPGSTIKPLVVYTPAVEAGWALNKQLDNHTMQYDSYKVDNYAGIKTSREVPMYQSLAESLNLPAVATVNDLGVDKAFEAGEKFGLNMEKVDRVLGVALGSGVETNPLQMAQAYAAFANEGLMPEAHFISRIENASGQVIASHKNSQKRVIDKSVADKMTSMMLGTFTNGTGISSSPADYVMAGKTGTTEAVFNPEYTSDQWVIGYTPDVVISHWLGFPTTDENHYLAGSTSNGAAHVFRNIANTILPYTPGSTFTVENAYKQNGIAPANTKRQVQTNDNSQTDDNLSDIRGRAQSLVDEASRAISDAKIKEKAQTIWDSIVNLFR
B5: bPBP2x-HA (enzyme)
chain: MKWTKRVIRYATKNRKSPAENRRRVGKSLSLLSVFVFAIFLVNFAVIIGTGTRFGTDLAKEAKKVHQTTRTVPAKRGTIYDRNGVPIAEDATSYNVYAVIDENYKSATGKILYVEKTQFNKVAEVFHKYLDMEESYVREQLSQPNLKQVSFGAKGNGITYANMMSIKKELEAAEVKGIDFTTSPNRSYPNGQFASSFIGLAQLHENEDGSKSLLGTSGMESSLNSILAGTDGIITYEKDRLGNIVPGTEQVSQRTMDGKDVYTTISSPLQSFMETQMDAFQEKVKGKYMTATLVSAKTGEILATTQRPTFDADTKEGITEDFVWRDILYQSNYEPGSTMKVMMLAAAIDNNTFPGGEVFNSSELKIADATIRDWDVNEGLTGGRTMTFSQGFAHSSNVGMTLLEQKMGDATWLDYLNRFKFGVPTRFGLTDEYAGQLPADNIVNIAQSSFGQGISVTQTQMIRAFTAIANDGVMLEPKFISAIYDPNDQTARKSQKEIVGNPVSKDAASLTRTNMVLVGTDPVYGTMYNHSTGKPTVTVPGQNVALKSGTAQIADEKNGGYLVGLTDYIFSAVSMSPAENPDFILYVTVQQPEHYSGIQLGEFANPILERASAMKDSLNLQTTAKALEQVSQQSPYPMPSVKDISPGDLAEELRRNLVQPIVVGTGTKIKNSSAEEGKNLAPNQQVLILSDKAEEVPDMYGWTKETAETLAKWLNIELEFQGSGSTVQKQDVRANTAIKDIKKITLTLGD
B6: bPBP2b-HA (enzyme)
chain: MRKFNSHSIPIRLNLLFSIVILLFMTIIGRLLYMQVLNKDFYEKKLASASQTKITSSSARGEIYDASGKPLVENTLKQVVSFTRSNKMTATDLKETAKKLLTYVSISSPNLTERQLADYYLADPEIYKKIVEALPSEKRLDSDGNRLSESELYNNAVDSVQTSQLNYTEDEKKEIYLFSQLNAVGNFATGTIATDPLNDSQVAVIASISKEMPGISISTSWDRKVLETSLSSIVGSVSSEKAGLPAEEAEAYLKKGYSLNDRVGTSYLEKQYEETLQGKRSVKEIHLDKYGNMESVDTIEEGSKGNNIKLTIDLAFQDSVDALLKSYFNSELENGGAKYSEGVYAVALNPKTGAVLSMSGIKHDLKTGELTPDSLGTVTNVFVPGSVVKAATISSGWENGVLSGNQTLTDQSIVFQGSAPINSWYTQAYGSFPITAVQALEYSSNTYMVQTALGLMGQTYQPNMFVGTSNLESAMEKLRSTFGEYGLGTATGIDLPDESTGFVPKEYSFANYITNAFGQFDNYTPMQLAQYVATIANNGVRVAPRIVEGIYGNNDKGGLGDLIQQLQPTEMNKVNISDSDMSILHQGFYQVAHGTSGLTTGRAFSNGALVSISGKTGTAESYVADGQQATNTNAVAYAPSDNPQIAVAVVFPHNTNLTNGVGPSIARDIINLYQKYHPMN

Tests used:
Experiment in all cases: co-IP
EzrA-L-FLAG^3 = target: T1, EzrA-L-FLAG^3
GpsB-L-FLAG^3 = target: T2, GpsB-L-FLAG^3
StkP-FLAG^2 = target: T3, StkP-FLAG^2

Binder | ratio of prey protein band, EzrA-L-FLAG^3 bait to EzrA^+ control (EzrA-L-FLAG^3) | ratio of prey protein band, GpsB-L-FLAG^3 bait to GpsB^+ control (GpsB-L-FLAG^3) | ratio of prey protein band, StkP-FLAG^2 bait to StkP^+ control (StkP-FLAG^2)
B1 | 15 ratio | – | –
B2 | – | 5.4 ratio | –
B3 | – | 6.2 ratio | 8.5 ratio
B4 | – | 4 ratio | –
B5 | – | – | 3.4 ratio
B6 | – | 18.3 ratio | 8.1 ratio
